Source: the RNAGym collection of RNA variant scans (doi:10.1073/pnas.2313332121)

B1: TPR t1 (parent)
chain: GACCAAUCUGCCCUCAGAGCUCGAGAACAUCUUCGGAUGCAGAGGAGGCAGGCUUCGGUGGCGCGAUAGCGCCAACGUCCUCAACCUCCAAUGCAUCCCACCACAUGAUGAUGCCUGAAGAGCCUUGGUUUUUUG

Variants of: B1
Test: polymerase ribozyme fitness, log enrichment relative to wild type (log ratio); higher = more active; in vitro selection for triplet polymerase activity
Summary of the method: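 Mutant libraries of each subunit of a heterodimeric triplet polymerase ribozyme were built by PCR and transcribed. Each library went through one round of in vitro selection in triplicate: annealing with biotinylated primer, partner subunit and triplets, frozen incubation at −7 °C, gel excision of extended constructs, streptavidin-bead capture and RT-PCR. Input and output libraries were Illumina-sequenced; only genotypes with ≥10 input reads and ≥1 read per output were kept. Fitness is log2(genotype enrichment/wild-type enrichment), using inverse-variance-weighted replicate averages.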

Variant	polymerase ribozyme fitness (log ratio)
G42A U54C U132A	-1.62
A5C G39C C70U G113A G120A C123A	-2.68
C53U A66G U112A	-0.539
A43U C53G	-1.38
C12U U116G	-0.0621
G47A C49U	-0.915
C8U G61U C70G	-4.76
C4U U9C C34G A100U	-4.68
A41G G61U A84G U96G C97U	-6.44
C72A G93C C114U C115U	-6.52
A6C C40U G60A C73G G107U C124U	-5.46
C11G C13U U32C G65A G113C G120U	-6.75
C72A A118C	-2.72
A43G C64G U87G G110A	-6.77
U87A C99U G110U	-5.56
G52U C64U C82G	-2.19
C28G C72G	-2.2
A27G G57C G122A U132C	-3.07
G63U C89A	-2.53
A83G U112C U131A	1.02
C4U U9C A41U	-0.927
U7G C8A C86U	0.828
C12U C13U C70U G71C U96A U112G U131C	-4
A6U C12G C72U U78C	-0.414

Variant	polymerase ribozyme fitness (log ratio)
G58A U59C C70G	-4.95
G42A G63A	-2.56
C49G C62A A100U	-2.34
C15G C124U	-0.148
G10A U55G	-0.319
U9G G57A U112A C123U G128A	-3.19
A43U G44U	-1.67
G10C A41C G48A A74U C101U	-3.49
G60U G65U A121C	-6.44
U21G U38C	-2.11
A5G C53U G71A G113A	-2.7
A37U C56G C85U	-1.26
A18C G47A	-2.19
A5G G44A	-0.648
G39U C40G	-3.47
A5U C11G A29U	-3.66
A16G C94U	-1.93
C12U G19U	-2.49
C53A C79A	-3.06
G71A A84U U112A U131A	-0.0045
C53G C101G	-1.65
G44U C70U C72U C79U G122A	-2.61
G58C U106A	0.185
A6C G61C U92C	-4.76

Variant	polymerase ribozyme fitness (log ratio)
C8U C56U	0.434
U59A U81C U87A	-1.17
U32A C40U G63A A83G G120C	-7.22
C40G G44U G63C C85U	-5.9
G63U C72U C115A	-1.23
A6G C79U C88G C104U	-1.13
A105U G117A	-4.52
A2U U9G	-1.32
C11A G69U G93A G128U	-3.27
C3A C12G A26U U30G G65C A121C U130C	-6.48
A50C C123A	-0.166
C72U A95G C98U G113A A118G	-4.04
C12G G39U G61U	0.0718
C11U C28G A83C C85U	-4.39
A37C G60A C76G	-2.7
C94U U129A	-1.25
G36A G52A A66G	-2.6
C56U C86G C104U	-0.849
G61C G63U	-5.51
G42U G52U U54A A111C G122A	-5.42
C13G G51A C97U A111G U129A	-6.21
C13G A37U C53A C79A U87C U129C	-5.34
A111C C114G	-3.93
U9C C72U C98U G120A	0.967

Variant	polymerase ribozyme fitness (log ratio)
A6C G35C G57U G58U G60C U81G A111G U125C G135A	-6.83
C12G A43U	-0.979
A27G C49U C76G	-2.99
C56G G61C	-5.99
C22G U106C C123G U133G	-2.48
C12A U133A	-0.907
G42U C72G G128C	-4.55
G58A U130G	-0.629
C114A U133A G135C	-1.08
C20A A27U A95G U131A	-3.17
C15U A18U C20U C28G G61U U87G C115U	-5
C11G C12A C40U C99U G117A C124G	-6.76
G63A	-0.907
C11U C94U	-1.24
C20U G60A G61A C99U	-5.32
C13U G71C	-0.732
C12A C70G C89A G110A U129A	-6.66
C8G G122A	0.556
A46U A91C C115G	-3.55
A18G C89A C114G U133A	-6.53
G10U G71C G135U	-3.12
G71U U81C G93A G120A	-0.964
C79G C82G U92A A121G	-5.59
C15A G71U A90U U106C A118U	-4.15

Variant	polymerase ribozyme fitness (log ratio)
C12U C72G C102A	-2.37
U78C U81G	-3.03
C12A A26U G36A G48C C72U	-4.02
G10A G19U G61U	-4.88
C89U G113U	-3.66
C13G C53G G63C	-2.03
G42A C49U C56U U130G	-3.07
A6G C85U G113A	-2.51
G47C C79A	-5.18
C8A G113C	-1.59
G48C G51C G57U	-2.77
A18C C72U	-2.49
C4A G127A	-1.82
C56G G69C A83C C104U G135A	-4.55
G52A G63U	-2.08
C4A G93A	-1.73
A74U C88U U116A	-3.69
G42A A100C	-4.08
C40G C56U C70A G77A C88U A103U A119G	-7.04
A6U G69U	0.777
A37G A95C	-1.66
C28U C56A	-1.65
C15U U129C	-1.86
G69U C123U	1.98

Variant	polymerase ribozyme fitness (log ratio)
A18G G57U U59C C62A C94U G117U	-5.27
A18G G39C	-4.37
C8U A18U C20A A95U G117A	-3.83
U59G C88G	-2.09
C13A A100U U131G	-2.21
U106A U112A	0.701
G60A C88U A118G	-1.01
G10U C12A G60A	-0.594
C34A A50G G113U G120C	-6.31
U14C A46U A74G	-1.32
U38G C101A	-1.88
C15A G60C U116C	-3.39
C12G A46C C53A C104A C123U	-1.14
U32G A68U C80A C101U A111U U126G	-6.67
C12A C15U G52U G63A C86U G117C	-5.35
C20A C40U U132A	-2.39
A5U G52C C73A C101U U106A U109C G135U	-5.42
A6U A27G C79U A111C	-4.62
C53U G69U C70U C82U	-0.71
C34U G47A C72U U78A C115A	-6.19
C34A G71U	-2.95
A46U C56A G93A G120A C123U	-1.16
G17C G36A C114G G127A	-5.69
G71A U112G	-1.07

Variant	polymerase ribozyme fitness (log ratio)
G17A G42U U129A	-4.5
U9A C20U A43U A50C U87A	-1.81
G48U A50U A68G C89G U106A U116C C124U	-5.48
U9C A26G A27U U54A A74G C82G	-6.24
G48U G57U A75G A83C G117A	-4.82
G51U U106G G110U C124A	-6.4
A29G C53A A91G C98A A111G	-7
C89U G110U A121G	-1.62
C79A U81C C89U G93U G120C C124U	-3.62
U59C G71C	-3.63
C89A G120C	-0.369
C8U A29C U55A C56G C88A U112A U130C	-3.36
A91U G120A	-0.951
U78C U130G	-0.922
C20G G48A G52A	-6
G35C G52U C53G A90G C98U	-6.7
U9C G60A	0.405
A6C G61U U78C A100U G120A U131C	0.181
U92A U129A	-4.29
C15U G47U G52C C53A C124G	-1.51
U55G C62U C102A	-1.77
C49A C73U G120U	-0.216
C4U G52C	-0.368
